Patent publication US20080057492A1, “Interacting site for gp41 on gp120 of hiv-1” (priority 2002, published 2008)

Experiments:
Assay in all cases: cell-based or functional assay
[1] = molecular target: Chimera P/7CD4bs envelope glycoprotein
[2] = molecular target: Chimera P/7CD4bs/V3 envelope glycoprotein
[3] = molecular target: MN-P envelope glycoprotein (neutralization resistant primary clone of the HIV-1 MN strain) (HIV-1 MN strain) (UniProt P05877)

Substance | fifty percent neutralization concentration (pseudotyped virus) [1] [ng/mL] | fifty percent neutralization concentration (pseudotyped virus) [2] [ng/mL] | fifty percent neutralization concentration (pseudotyped virus) [3] [µg/mL]
monoclonal antibody 4.8d | 60 | 20 | > 2.5
monoclonal antibody 17b | 480 | 210 | > 2.5
monoclonal antibody 19b | 60 | 16 | > 2.5
